Measurements taken from patent US20180105584A1 (published 2018).

Target: SpA on the surface of live S. aureus TCH1516 (USA300 MRSA strain) (Staphylococcus aureus strain USA300 …, UniProt A0A0H3K686 37-508)
Test: cell-based or functional assay

B1: 10901_QRF (Lys274Gln, His435Arg, Tyr436Phe Fc mutant), CHO expressed IgG1 (antibody)
heavy: EVQLVQSGAEVKKPGASVKVSCKASGYTFSHYYMHWVRQAPGQGLEWMGIINPRYGSTSYAQKFQGRVTMTRDTSTSTVYMELSSLRSEDTAVYYCARDGEVGARDLGWFDPWGQGTLVTVSSASTKGPSVFPLAPSSKSTSGGTAALGCLVKDYFPEPVTVSWNSGALTSGVHTFPAVLQSSGLYSLSSVVTVPSSSLGTQTYICNVNHKPSNTKVDKKVEPKSCDKTHTCPPCPAPELLGGPSVFLFPPKPKDTLMISRTPEVTCVVVDVSHEDPEVQFNWYVDGVEVHNAKTKPREEQYNSTYRVVSVLTVLHQDWLNGKEYKCKVSNKALPAPIEKTISKAKGQPREPQVYTLPPSRDELTKNQVSLTCLVKGFYPSDIAVEWESNGQPENNYKTTPPVLDSDGSFFLYSKLTVDKSRWQQGNVFSCSVMHEALHNRFTQKSLSLSPG
light: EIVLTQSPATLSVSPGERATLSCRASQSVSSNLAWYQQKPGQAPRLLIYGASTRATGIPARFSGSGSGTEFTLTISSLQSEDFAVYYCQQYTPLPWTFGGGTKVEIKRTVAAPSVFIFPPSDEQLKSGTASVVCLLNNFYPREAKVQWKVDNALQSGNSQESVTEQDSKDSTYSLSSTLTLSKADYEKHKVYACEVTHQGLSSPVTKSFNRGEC
For B1, the “killing of S. aureus in opsonophagocytic killing (OPK) assay with human PMNs” value was ~80%.
